# Biological target: Mg-ATP actin (15% Alexa 488-labeled), assembled into actin filaments (F-actin) (not stated (chicken or rabbit skeletal muscle)) (UniProt P68135)
# Test: TIRF microscopy; two-color TIRFM of 1.5 μM Mg-ATP actin (15% Alexa 488) assembling with Cy5-labeled Cdc8 at 1 μM and above; 10 mM imidazole pH 7.0, 50 mM KCl, 1 mM MgCl2, 1 mM EGTA, 0.5% methylcellulose, room temperature
Substance,percent of actin filaments associated with tropomyosin [%],kon per unit filament length of the first observed Cdc8 binding (random-binding model fitted to the TIRFM data) [s⁻¹ nm⁻¹],percent of F-actin coated at 2 μM Cdc8 and higher [%],percent of actin filament sites coated at 1.25 μM Cdc8 [%],percent of total actin filament coverage at 1 μM Cdc8 [%],spreading rate of Cdc8 toward the barbed end (Cdc8 molecules sec^-1 μM^-1),spreading rate of Cdc8 toward the pointed end (Cdc8 molecules sec^-1 μM^-1)
"tropomyosin AlaSer-Cdc8 D142C, Cy5-labeled (natural protein)",100,,,,,,
"tropomyosin AlaSer-Cdc8 I76C, Cy5-labeled (natural protein)",100,4e-06,98,40,2,3.2,2.4

# Reference: paper PMC5404920
